Measurements: patent US20060003434

Test system: T1, FLAG-Heme1B (human Eme1B, FLAG tagged at the C terminus)
T1 sequence: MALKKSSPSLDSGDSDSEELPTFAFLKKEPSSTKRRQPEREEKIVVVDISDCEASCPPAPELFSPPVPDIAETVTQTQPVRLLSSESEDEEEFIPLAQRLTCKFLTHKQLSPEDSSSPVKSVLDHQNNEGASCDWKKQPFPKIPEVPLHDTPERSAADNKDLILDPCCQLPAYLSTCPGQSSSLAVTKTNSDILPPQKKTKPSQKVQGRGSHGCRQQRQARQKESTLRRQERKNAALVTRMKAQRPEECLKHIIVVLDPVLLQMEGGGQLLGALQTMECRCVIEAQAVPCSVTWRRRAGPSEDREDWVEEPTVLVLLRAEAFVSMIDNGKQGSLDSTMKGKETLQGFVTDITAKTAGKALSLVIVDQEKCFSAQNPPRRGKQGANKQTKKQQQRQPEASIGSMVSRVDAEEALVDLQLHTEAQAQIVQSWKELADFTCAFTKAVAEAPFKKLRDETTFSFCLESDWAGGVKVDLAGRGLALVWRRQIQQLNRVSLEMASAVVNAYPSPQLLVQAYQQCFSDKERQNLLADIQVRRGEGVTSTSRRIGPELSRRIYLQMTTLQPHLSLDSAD

3HaMus81 (triple hemagglutinin (3Ha) tagged Hmus81), wild type
endonuclease activity of immune-precipitates on a 3' flap substrate: The activity of 3HaMus81 was greatly increased in cells that had been co-transfected with FLAG-Eme1B
